Data on one substance can be found in paper doi:10.1101/2022.05.13.491857.

The assay deals with GST-Rac1^QP (UniProt P63000). Put plainly: pull-down.

In the case of “WRC^Y967A (from UniProt Q7L576 1-1253; Q9Y2A7 1-1128; Q92558 1-230; Q9NYB9 1-158; Q8WUW1 1-75) (complex)”, the Kd was 2000 nM.
